Reference: the supplement of paper PMC9112550, “Optimization of the antimicrobial peptide Bac7 by deep mutational scanning” (BMC Biology, 2022)

System: Escherichia coli TOP10
Test: shrunken log2 fold change of peptide-encoding DNA abundance (4.5 h post-induction vs induction); higher = less antimicrobial activity (less host growth inhibition)
Conditions: time post-induction: 4.5 h; library: site-saturation at positions 5, 18, 19, 20
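Also: peptides expressed intracellularly from a pBAD plasmid library in pooled LB shake-flask culture, induced with 0.3% L-arabinose, DNA abundance read by NGS, three biological replicates, DESeq2 with apeglm shrinkage.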

Sequence | shrunken log2 fold change
RRIRMRPPRLPRPRPRPAYYPRP | -0.3
RRIRMRPPRLPRPRPRPCCEPRP | 0.192
RRIRMRPPRLPRPRPRPCCRPRP | 0.0467
RRIRMRPPRLPRPRPRPCCVPRP | 0.166
RRIRMRPPRLPRPRPRPCDNPRP | 0.0146
RRIRMRPPRLPRPRPRPCDTPRP | 0.13
RRIRMRPPRLPRPRPRPCEGPRP | -0.00822
RRIRMRPPRLPRPRPRPCFCPRP | 0.0295
RRIRMRPPRLPRPRPRPCISPRP | 0.00253
RRIRMRPPRLPRPRPRPCIVPRP | -0.0122
RRIRMRPPRLPRPRPRPCLHPRP | -0.608
RRIRMRPPRLPRPRPRPCLMPRP | 0.0359
RRIRMRPPRLPRPRPRPCLQPRP | -0.0178
RRIRMRPPRLPRPRPRPCMEPRP | 0.112
RRIRMRPPRLPRPRPRPCPSPRP | 0.0607
RRIRMRPPRLPRPRPRPCSTPRP | 0.477
RRIRMRPPRLPRPRPRPCWVPRP | 0.827
RRIRMRPPRLPRPRPRPCYAPRP | -0.105
RRIRMRPPRLPRPRPRPCYKPRP | -0.145
RRIRMRPPRLPRPRPRPCYSPRP | -0.711
RRIRMRPPRLPRPRPRPDCLPRP | 1.54
RRIRMRPPRLPRPRPRPDESPRP | 2.38
RRIRMRPPRLPRPRPRPDGNPRP | 0.0626
RRIRMRPPRLPRPRPRPDGVPRP | 0.0632
RRIRMRPPRLPRPRPRPDHRPRP | -0.279

Sequence | shrunken log2 fold change
RRIRMRPPRLPRPRPRPDIMPRP | 2.19
RRIRMRPPRLPRPRPRPDISPRP | -0.0568
RRIRMRPPRLPRPRPRPDLAPRP | 1.4
RRIRMRPPRLPRPRPRPDLIPRP | 0.0508
RRIRMRPPRLPRPRPRPDMTPRP | -0.05
RRIRMRPPRLPRPRPRPDPRPRP | 0.104
RRIRMRPPRLPRPRPRPDQAPRP | 0.357
RRIRMRPPRLPRPRPRPDQNPRP | 0.405
RRIRMRPPRLPRPRPRPDSSPRP | 0.0874
RRIRMRPPRLPRPRPRPDVQPRP | -0.00142
RRIRMRPPRLPRPRPRPDWSPRP | -0.0229
RRIRMRPPRLPRPRPRPDYRPRP | -0.146
RRIRMRPPRLPRPRPRPEADPRP | 0.136
RRIRMRPPRLPRPRPRPECPPRP | 0.43
RRIRMRPPRLPRPRPRPECQPRP | 3.29
RRIRMRPPRLPRPRPRPEDIPRP | -0.0245
RRIRMRPPRLPRPRPRPEESPRP | 0.113
RRIRMRPPRLPRPRPRPEFAPRP | 0.679
RRIRMRPPRLPRPRPRPEFCPRP | 1.18
RRIRMRPPRLPRPRPRPEHAPRP | 2.54
RRIRMRPPRLPRPRPRPEHSPRP | 0.234
RRIRMRPPRLPRPRPRPELAPRP | 3.6
RRIRMRPPRLPRPRPRPELWPRP | 3.17
RRIRMRPPRLPRPRPRPENAPRP | 0.0504
RRIRMRPPRLPRPRPRPESAPRP | 2.73

Sequence | shrunken log2 fold change
RRIRMRPPRLPRPRPRPESGPRP | 0.908
RRIRMRPPRLPRPRPRPESIPRP | 0.522
RRIRMRPPRLPRPRPRPESQPRP | 2.59
RRIRMRPPRLPRPRPRPETWPRP | 1.44
RRIRMRPPRLPRPRPRPEWDPRP | 3.48
RRIRMRPPRLPRPRPRPEWPPRP | 0.0994
RRIRMRPPRLPRPRPRPEYDPRP | 2.81
RRIRMRPPRLPRPRPRPEYLPRP | -0.082
RRIRMRPPRLPRPRPRPEYRPRP | -0.000921
RRIRMRPPRLPRPRPRPEYSPRP | 0.0257
RRIRMRPPRLPRPRPRPFAAPRP | 0.789
RRIRMRPPRLPRPRPRPFALPRP | 0.0192
RRIRMRPPRLPRPRPRPFARPRP | 0.412
RRIRMRPPRLPRPRPRPFDEPRP | -0.0062
RRIRMRPPRLPRPRPRPFDVPRP | 0.268
RRIRMRPPRLPRPRPRPFEQPRP | 0.0263
RRIRMRPPRLPRPRPRPFEYPRP | -0.219
RRIRMRPPRLPRPRPRPFFWPRP | 0.593
RRIRMRPPRLPRPRPRPFGGPRP | 0.222
RRIRMRPPRLPRPRPRPFGHPRP | -0.0287
RRIRMRPPRLPRPRPRPFGQPRP | 0.0853
RRIRMRPPRLPRPRPRPFGWPRP | 0.32
RRIRMRPPRLPRPRPRPFIEPRP | -0.0583
RRIRMRPPRLPRPRPRPFLPPRP | -0.346
RRIRMRPPRLPRPRPRPFLRPRP | -0.22

Sequence | shrunken log2 fold change
RRIRMRPPRLPRPRPRPFLWPRP | 0.0175
RRIRMRPPRLPRPRPRPFMRPRP | 0.345
RRIRMRPPRLPRPRPRPFQDPRP | -0.235
RRIRMRPPRLPRPRPRPFRKPRP | -0.0166
RRIRMRPPRLPRPRPRPFRQPRP | 0.0135
RRIRMRPPRLPRPRPRPFRRPRP | -0.117
RRIRMRPPRLPRPRPRPFSDPRP | -0.0199
RRIRMRPPRLPRPRPRPFSVPRP | -0.0472
RRIRMRPPRLPRPRPRPFVRPRP | -0.01
RRIRMRPPRLPRPRPRPFVYPRP | -0.00869
RRIRMRPPRLPRPRPRPFWEPRP | 0.0748
RRIRMRPPRLPRPRPRPFWFPRP | 0.132
RRIRMRPPRLPRPRPRPFWPPRP | 1.3
RRIRMRPPRLPRPRPRPFWQPRP | 0.341
RRIRMRPPRLPRPRPRPFWVPRP | -0.0112
RRIRMRPPRLPRPRPRPFYHPRP | -0.537
RRIRMRPPRLPRPRPRPGANPRP | 1.17
RRIRMRPPRLPRPRPRPGARPRP | 1.11
RRIRMRPPRLPRPRPRPGASPRP | 0.854
RRIRMRPPRLPRPRPRPGCYPRP | 0.135
RRIRMRPPRLPRPRPRPGDAPRP | 0.853
RRIRMRPPRLPRPRPRPGDKPRP | 0.9
RRIRMRPPRLPRPRPRPGDQPRP | 1.13
RRIRMRPPRLPRPRPRPGEIPRP | 0.995
RRIRMRPPRLPRPRPRPGGVPRP | 0.952

Sequence | shrunken log2 fold change
RRIRMRPPRLPRPRPRPGHHPRP | 0.209
RRIRMRPPRLPRPRPRPGIHPRP | 0.142
RRIRMRPPRLPRPRPRPGNCPRP | 0.0879
RRIRMRPPRLPRPRPRPGNGPRP | 0.885
RRIRMRPPRLPRPRPRPGPTPRP | 1.54
RRIRMRPPRLPRPRPRPGPVPRP | 1.14
RRIRMRPPRLPRPRPRPGPWPRP | 0.89
RRIRMRPPRLPRPRPRPGQAPRP | 0.34
RRIRMRPPRLPRPRPRPGQQPRP | 1.34
RRIRMRPPRLPRPRPRPGSVPRP | 0.696
RRIRMRPPRLPRPRPRPGTQPRP | 0.407
RRIRMRPPRLPRPRPRPGVMPRP | 0.633
RRIRMRPPRLPRPRPRPGWQPRP | -0.032
RRIRMRPPRLPRPRPRPGYQPRP | -0.0727
RRIRMRPPRLPRPRPRPHACPRP | -0.0695
RRIRMRPPRLPRPRPRPHAMPRP | -0.0135
RRIRMRPPRLPRPRPRPHCPPRP | -0.506
RRIRMRPPRLPRPRPRPHCSPRP | 0.183
RRIRMRPPRLPRPRPRPHCTPRP | -0.147
RRIRMRPPRLPRPRPRPHCYPRP | -0.0522
RRIRMRPPRLPRPRPRPHDPPRP | 0.000689
RRIRMRPPRLPRPRPRPHDQPRP | 0.351
RRIRMRPPRLPRPRPRPHELPRP | 0.627
RRIRMRPPRLPRPRPRPHENPRP | 0.218
RRIRMRPPRLPRPRPRPHFKPRP | -0.0841

Sequence | shrunken log2 fold change
RRIRMRPPRLPRPRPRPHFNPRP | -0.0825
RRIRMRPPRLPRPRPRPHFRPRP | 0.0286
RRIRMRPPRLPRPRPRPHGIPRP | 0.0295
RRIRMRPPRLPRPRPRPHHIPRP | -0.165
RRIRMRPPRLPRPRPRPHHYPRP | -0.51
RRIRMRPPRLPRPRPRPHICPRP | -0.0377
RRIRMRPPRLPRPRPRPHIPPRP | -0.289
RRIRMRPPRLPRPRPRPHLQPRP | 0.0376
RRIRMRPPRLPRPRPRPHMTPRP | 0.342
RRIRMRPPRLPRPRPRPHNAPRP | 0.207
RRIRMRPPRLPRPRPRPHNQPRP | 0.177
RRIRMRPPRLPRPRPRPHPGPRP | 0.293
RRIRMRPPRLPRPRPRPHQLPRP | -0.0373
RRIRMRPPRLPRPRPRPHQWPRP | 0.121
RRIRMRPPRLPRPRPRPHRAPRP | 0.677
RRIRMRPPRLPRPRPRPHSEPRP | 0.134
RRIRMRPPRLPRPRPRPHTKPRP | 0.137
RRIRMRPPRLPRPRPRPHTNPRP | 0.0722
RRIRMRPPRLPRPRPRPHWFPRP | 0.0685
RRIRMRPPRLPRPRPRPHWPPRP | 1.1
RRIRMRPPRLPRPRPRPHYDPRP | -0.135
RRIRMRPPRLPRPRPRPHYLPRP | 0.106
RRIRMRPPRLPRPRPRPHYNPRP | -0.467
RRIRMRPPRLPRPRPRPHYQPRP | -0.228
RRIRMRPPRLPRPRPRPICGPRP | 0.237
